Data on 91 sequences can be found in the supplement of paper PMC9112550, “Optimization of the antimicrobial peptide Bac7 by deep mutational scanning” (BMC Biology, 2022).
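Note: peptides expressed intracellularly from a pBAD plasmid library in pooled LB shake-flask culture, induced with 0.3% L-arabinose, DNA abundance read by NGS, three biological replicates, DESeq2 with apeglm shrinkage.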

In the data set the test system is Escherichia coli TOP10. The data set can be described thus: shrunken log2 fold change of peptide-encoding DNA abundance (4.5 h post-induction vs induction); higher = less antimicrobial activity (less host growth inhibition). Particulars: time post-induction: 4.5 h; library: site-saturation at positions 5, 18, 19, 20.
Consider RRIRKRPPRLPRPRPRPKEVPRP, for which the “shrunken log2 fold change” value was 0.0319. Take RRIRDRPPRLPRPRPRPMKMPRP: the “shrunken log2 fold change” value was determined as 0.0275. Regarding RRIRQRPPRLPRPRPRPWMHPRP, the “shrunken log2 fold change” value stood at 0.0573. Turning to RRIRMRPPRLPRPRPRPICDPRP, the “shrunken log2 fold change” value amounted to 0.36.

For RRIRQRPPRLPRPRPRPSCGPRP, the “shrunken log2 fold change” value was found to be 0.117. Consider RRIRPRPPRLPRPRPRPKSKPRP, for which the “shrunken log2 fold change” value is -0.255.

For the sequence RRIRPRPPRLPRPRPRPSRLPRP, the “shrunken log2 fold change” value is -0.0839. For RRIRPRPPRLPRPRPRPAEWPRP the value was 0.308; for RRIRFRPPRLPRPRPRPGKFPRP, 0.138. As for RRIRERPPRLPRPRPRPQEDPRP, the “shrunken log2 fold change” value was -0.0088.

Take RRIRMRPPRLPRPRPRPTQDPRP: the “shrunken log2 fold change” value is 1.24. On to RRIRWRPPRLPRPRPRPGTEPRP, for which the “shrunken log2 fold change” value turned out to be 0.403. Consider RRIRCRPPRLPRPRPRPHSCPRP, for which the “shrunken log2 fold change” value is -0.132.

RRIRYRPPRLPRPRPRPCKRPRP: the “shrunken log2 fold change” value was -0.0961. Turning to RRIRARPPRLPRPRPRPHAGPRP, the “shrunken log2 fold change” value turned out to be 0.122. For RRIRVRPPRLPRPRPRPKEIPRP, the “shrunken log2 fold change” value was 0.104. Consider RRIRARPPRLPRPRPRPENMPRP, for which the “shrunken log2 fold change” value was 0.242. As to RRIRFRPPRLPRPRPRPYMNPRP, the “shrunken log2 fold change” value was -0.818.

RRIRIRPPRLPRPRPRPTTSPRP: the “shrunken log2 fold change” value was -0.0703.

Take RRIRIRPPRLPRPRPRPHWSPRP: the “shrunken log2 fold change” value is -0.187. Consider RRIRMRPPRLPRPRPRPLMWPRP, for which the “shrunken log2 fold change” value was found to be 0.268. On to RRIRGRPPRLPRPRPRPCDHPRP, for which the “shrunken log2 fold change” value was determined as 0.135. For RRIRYRPPRLPRPRPRPKAMPRP the value was -0.0317; for RRIRKRPPRLPRPRPRPKEIPRP, 0.00103; for RRIRNRPPRLPRPRPRPSFPPRP, -0.19. For RRIRMRPPRLPRPRPRPRNHPRP the value was 0.263. Regarding RRIRSRPPRLPRPRPRPRPKPRP, the “shrunken log2 fold change” value is 0.518. With RRIRARPPRLPRPRPRPKRHPRP, the “shrunken log2 fold change” value turned out to be 0.511. For the sequence RRIRRRPPRLPRPRPRPGATPRP, the “shrunken log2 fold change” value came out at 0.74. For RRIRYRPPRLPRPRPRPCLCPRP the value was -0.453. For RRIRHRPPRLPRPRPRPLQWPRP the value was -0.127; for RRIRPRPPRLPRPRPRPSAVPRP, 0.0719; for RRIRFRPPRLPRPRPRPMVYPRP, -0.389. For RRIRQRPPRLPRPRPRPPGEPRP the value was 0.119; for RRIRQRPPRLPRPRPRPYHDPRP, 0.015. On to RRIRFRPPRLPRPRPRPCNTPRP, for which the “shrunken log2 fold change” value is -0.0482. For RRIRQRPPRLPRPRPRPHWMPRP the value was -0.0751; for RRIRYRPPRLPRPRPRPIKWPRP, 0.0101. In the case of RRIRYRPPRLPRPRPRPWWWPRP, the “shrunken log2 fold change” value amounted to 0.0798. As for RRIRKRPPRLPRPRPRPDIVPRP, the “shrunken log2 fold change” value stood at 1.54. As to RRIRNRPPRLPRPRPRPRFYPRP, the “shrunken log2 fold change” value was -0.201. Consider RRIRCRPPRLPRPRPRPRIGPRP, for which the “shrunken log2 fold change” value was determined as 0.016. For RRIRIRPPRLPRPRPRPACGPRP the value was 0.271; for RRIRCRPPRLPRPRPRPANVPRP, -0.0934. With RRIRPRPPRLPRPRPRPVQTPRP, the “shrunken log2 fold change” value turned out to be 0.00686. For RRIRVRPPRLPRPRPRPINVPRP the value was -0.342; for RRIRPRPPRLPRPRPRPVLLPRP, 0.00267; for RRIRIRPPRLPRPRPRPHFNPRP, -0.966. As to RRIRERPPRLPRPRPRPKIDPRP, the “shrunken log2 fold change” value is -0.0798. RRIRPRPPRLPRPRPRPKWQPRP: the “shrunken log2 fold change” value is 0.225. Consider RRIRVRPPRLPRPRPRPMDQPRP, for which the “shrunken log2 fold change” value is 0.188.

Consider RRIRKRPPRLPRPRPRPTNIPRP, for which the “shrunken log2 fold change” value was -0.188.

Consider RRIRPRPPRLPRPRPRPKTSPRP, for which the “shrunken log2 fold change” value is 0.0127. For RRIRDRPPRLPRPRPRPCRFPRP the value was -0.00146. For RRIRDRPPRLPRPRPRPLSMPRP the value was -0.283; for RRIRCRPPRLPRPRPRPMDCPRP, -0.0376. For RRIRDRPPRLPRPRPRPDDPPRP the value was -0.00152; for RRIRLRPPRLPRPRPRPMYLPRP, 0.0092. For the sequence RRIRDRPPRLPRPRPRPPKPPRP, the “shrunken log2 fold change” value was 0.214. For the sequence RRIRARPPRLPRPRPRPIAPPRP, the “shrunken log2 fold change” value was 0.53.

Regarding RRIRFRPPRLPRPRPRPKSAPRP, the “shrunken log2 fold change” value is -0.00592. On to RRIRIRPPRLPRPRPRPSFAPRP, for which the “shrunken log2 fold change” value is -0.24. On to RRIRSRPPRLPRPRPRPWFVPRP, for which the “shrunken log2 fold change” value is -0.36.

As for RRIRPRPPRLPRPRPRPGGTPRP, the “shrunken log2 fold change” value worked out at 0.269.

In the case of RRIRPRPPRLPRPRPRPHDPPRP, the “shrunken log2 fold change” value was determined as 0.192.

Consider RRIRMRPPRLPRPRPRPTHGPRP, for which the “shrunken log2 fold change” value turned out to be 0.188. Take RRIRLRPPRLPRPRPRPPWYPRP: the “shrunken log2 fold change” value is -0.312.

With RRIRIRPPRLPRPRPRPICQPRP, the “shrunken log2 fold change” value is -0.418. Turning to RRIRLRPPRLPRPRPRPTQWPRP, the “shrunken log2 fold change” value was 0.453. Turning to RRIRIRPPRLPRPRPRPQKHPRP, the “shrunken log2 fold change” value is -0.46.

In the case of RRIRMRPPRLPRPRPRPKRFPRP, the “shrunken log2 fold change” value was determined as 0.483.

With RRIRVRPPRLPRPRPRPILVPRP, the “shrunken log2 fold change” value is -0.00597. Turning to RRIRYRPPRLPRPRPRPEHHPRP, the “shrunken log2 fold change” value was -0.646. With RRIRFRPPRLPRPRPRPMTIPRP, the “shrunken log2 fold change” value was -0.182.

As to RRIRMRPPRLPRPRPRPPCVPRP, the “shrunken log2 fold change” value was 0.389. For RRIRIRPPRLPRPRPRPVCIPRP the value was -0.527; for RRIRCRPPRLPRPRPRPCQWPRP, -0.00783; for RRIRVRPPRLPRPRPRPRSKPRP, -0.108. As to RRIRKRPPRLPRPRPRPWWKPRP, the “shrunken log2 fold change” value was -0.103. For RRIRWRPPRLPRPRPRPWKCPRP the value was -0.01; for RRIRQRPPRLPRPRPRPDRMPRP, -0.0981; for RRIRRRPPRLPRPRPRPWWYPRP, -0.303. For RRIRHRPPRLPRPRPRPRNTPRP the value was -0.229; for RRIRERPPRLPRPRPRPLHCPRP, 0.0821. As to RRIRTRPPRLPRPRPRPYWGPRP, the “shrunken log2 fold change” value was -0.0337. For RRIRWRPPRLPRPRPRPFQFPRP the value was -0.198. On to RRIRFRPPRLPRPRPRPYTIPRP, for which the “shrunken log2 fold change” value is 0.0439. For the sequence RRIRKRPPRLPRPRPRPYITPRP, the “shrunken log2 fold change” value is -0.548. As to RRIRGRPPRLPRPRPRPPVKPRP, the “shrunken log2 fold change” value is 0.678. For RRIRRRPPRLPRPRPRPWEEPRP the value was 0.158; for RRIRTRPPRLPRPRPRPCRPPRP, -0.415.
